± gives the uncertainty stated by the source.
B1: V(D)J recombination-activating protein 2, residues 415 to 491; numbered along this chain, P55895 (parent)
chain: YWITCCPTCDVDINTWVPFYSTELNKPAMIYCSHGDGHWVHAQCMDLAERTLIHLSAGSNKYYCNEHVEIARALHTP
B2: PDZ and LIM domain protein 2, residues 284 to 339; numbered along this chain, Q96JY6 (parent)
chain: HTCEKCSTSIANQAVRIQEGRYRHPGCYTCADCGLNLKMRGHFWVGDELYCEKHAR

Variants of: B1
Test: abundance fitness (aPCA) (normalised: wild type 0, dead -1); higher = more abundant; growth selection in yeast, the domain comes from the species named
Settings: Homo sapiens

| Variant | abundance fitness |
| --- | --- |
| A57Y | -0.108 ± 0.19 |
| A57M | -0.156 ± 0.12 |
| A57P | -0.029 ± 0.095 |
| T51M | -0.133 ± 0.088 |
| T51W | -0.412 ± 0.11 |
| T51N | -0.191 ± 0.19 |
| T51P | -0.203 ± 0.098 |
| W2I | -0.333 ± 0.26 |
| W2Y | 0.055 ± 0.1 |
| W2P | -0.299 ± 0.14 |
| W2L | -0.467 ± 0.066 |
| K61N | -0.115 ± 0.29 |
| K61A | 0.017 ± 0.047 |
| K61G | 0.06 ± 0.12 |
| K61L | 0.158 ± 0.1 |
| W16T | -0.144 ± 0.38 |
| W16Q | -0.916 ± 0.43 |
| W16C | -0.553 ± 0.23 |
| P27F | -0.515 ± 0.46 |
| P27Q | -0.79 ± 0.33 |
| P27V | -0.668 ± 0.21 |
| P27G | -1.09 ± 0.27 |
| P27A | -0.776 ± 0.44 |
| P27L | -0.861 ± 0.21 |
| P27D | -1.01 ± 0.41 |

| Variant | abundance fitness |
| --- | --- |
| C9G | -0.916 ± 0.5 |
| C9Q | -0.175 ± 0.3 |
| E69Q | 0.147 ± 0.37 |
| E69A | -0.092 ± 0.33 |
| E69T | 0.007 ± 0.13 |
| E69Y | -0.328 ± 0.41 |
| A28P | -0.334 ± 0.21 |
| A28L | -0.094 ± 0.095 |
| A28V | -0.155 ± 0.14 |
| A28E | -0.172 ± 0.29 |
| A28W | -0.116 ± 0.19 |
| L52A | -0.144 ± 0.082 |
| L52T | -0.161 ± 0.086 |
| L52V | -0.033 ± 0.074 |
| L52C | -0.145 ± 0.089 |
| L52E | -0.258 ± 0.095 |
| L52P | -0.423 ± 0.083 |
| C6F | -0.304 ± 0.48 |
| C6L | -0.284 ± 0.33 |
| C6R | -0.432 ± 0.17 |
| C6V | -0.096 ± 0.26 |
| C6S | 0.209 ± 0.19 |
| H67N | -0.32 ± 0.096 |
| H67K | -0.388 ± 0.081 |
| H67P | -0.369 ± 0.069 |

| Variant | abundance fitness |
| --- | --- |
| H67C | -0.031 ± 0.074 |
| H67Q | -0.348 ± 0.058 |
| H67S | -0.196 ± 0.054 |
| H67M | -0.579 ± 0.053 |
| H67T | -0.22 ± 0.076 |
| G37P | 0.076 ± 0.23 |
| I30M | -0.219 ± 0.24 |
| E66Q | -0.057 ± 0.12 |
| E66T | -0.063 ± 0.13 |
| E66C | 0.023 ± 0.11 |
| E66A | -0.025 ± 0.064 |
| E66L | 0.01 ± 0.066 |
| E66K | -0.099 ± 0.092 |
| N25V | 0.065 ± 0.21 |
| N25S | -0.042 ± 0.12 |
| N25L | 0.073 ± 0.14 |
| N25G | 0.01 ± 0.11 |
| N25A | -0.124 ± 0.19 |
| N25D | -0.297 ± 0.33 |
| T22R | -0.23 ± 0.11 |
| N14D | 0.385 ± 0.33 |
| N14Q | -0.332 ± 0.29 |
| N14S | -0.419 ± 0.33 |
| N14K | -0.004 ± 0.42 |
| N14P | -0.346 ± 0.49 |

| Variant | abundance fitness |
| --- | --- |
| Y1A | -0.188 ± 0.079 |
| Y1Q | -0.283 ± 0.22 |
| Y1E | -0.063 ± 0.2 |
| W39H | -0.144 ± 0.11 |
| W39T | -0.197 ± 0.049 |
| W39Q | -0.176 ± 0.053 |
| W39V | -0.193 ± 0.034 |
| W39G | -0.54 ± 0.034 |
| W39K | -0.23 ± 0.07 |
| W39E | -0.148 ± 0.049 |
| W39R | -0.185 ± 0.029 |
| W39Y | 0.014 ± 0.079 |
| W39F | -0.105 ± 0.074 |
| C44V | -1.11 ± 0.14 |
| C44M | -1.15 ± 0.45 |
| C44L | -0.806 ± 0.064 |
| C44Y | -0.961 ± 0.22 |
| C44E | -1.08 ± 0.23 |
| K26L | -0.063 ± 0.14 |
| K26G | -0.17 ± 0.15 |
| K26W | 0.023 ± 0.18 |
| K26Y | -0.421 ± 0.43 |
| K26P | -0.786 ± 0.36 |
| G35A | -0.164 ± 0.22 |
| G35S | -0.136 ± 0.11 |

| Variant | abundance fitness |
| --- | --- |
| H75L | -0.013 ± 0.049 |
| H75A | 0.002 ± 0.08 |
| H75F | -0.087 ± 0.1 |
| Q43T | 0.107 ± 0.36 |
| Q43V | -0.116 ± 0.12 |
| Q43G | -0.203 ± 0.14 |
| Q43A | -0.397 ± 0.5 |
| A48S | -0.066 ± 0.067 |
| A48D | -0.044 ± 0.09 |
| A48F | -0.161 ± 0.084 |
| A48R | 0.023 ± 0.058 |
| A48K | -0.011 ± 0.076 |
| V40R | -0.65 ± 0.1 |
| V40S | -0.456 ± 0.095 |
| V40A | -0.288 ± 0.14 |
| V40N | -0.633 ± 0.33 |
| V40G | -0.744 ± 0.13 |
| V40I | -0.081 ± 0.35 |
| V40Y | -0.85 ± 0.32 |
| V40F | -0.852 ± 0.3 |
| I13T | -0.329 ± 0.22 |
| I13E | 0.172 ± 0.29 |
| V68E | -0.439 ± 0.22 |
| V68M | -0.087 ± 0.2 |
| V68C | -0.019 ± 0.14 |

| Variant | abundance fitness |
| --- | --- |
| V68W | -0.076 ± 0.2 |
| V68I | -0.318 ± 0.2 |
| V68Q | -0.495 ± 0.48 |
| V68P | -0.125 ± 0.25 |
| N60F | -0.273 ± 0.16 |
| N60M | -0.081 ± 0.1 |
| N60G | -0.017 ± 0.066 |
| N60P | -0.118 ± 0.08 |
| N60Q | -0.069 ± 0.08 |
| C32S | -0.683 ± 0.13 |
| C32D | -1.14 ± 0.45 |
| C32Y | -0.888 ± 0.34 |
| C32V | -0.746 ± 0.088 |
| C32T | -0.99 ± 0.18 |
| C32H | -0.804 ± 0.39 |
| C32N | -0.85 ± 0.35 |
| I3A | -0.057 ± 0.042 |
| I3K | -0.018 ± 0.057 |
| I3C | -0.117 ± 0.057 |
| I3M | -0.041 ± 0.07 |
| I3Y | -0.202 ± 0.098 |
| I3P | -0.623 ± 0.078 |
| I3Q | -0.186 ± 0.075 |
| I3E | -0.082 ± 0.074 |
| I3D | 0.004 ± 0.071 |

Variants of: B2
Test: as above
Settings: Homo sapiens

| Variant | abundance fitness |
| --- | --- |
| A55V | -0.172 ± 0.084 |
| A55P | -0.414 ± 0.22 |
| A55G | -0.079 ± 0.084 |
| A55W | 0.063 ± 0.056 |
| A55R | 0.005 ± 0.074 |
| A55I | -0.203 ± 0.26 |
| A55Q | 0.041 ± 0.15 |
| A55S | 0.148 ± 0.1 |
| A55Y | 0.081 ± 0.073 |
| A55M | -0.066 ± 0.091 |
| A55T | -0.013 ± 0.11 |
| R56L | 0.797 ± 0.18 |
| R56E | 0.263 ± 0.16 |
| R56W | -0.344 ± 0.084 |
| R56G | 0.068 ± 0.088 |
| R56C | 0.093 ± 0.3 |
| R56V | 0.049 ± 0.14 |
